From article doi:10.1101/2021.08.02.454737
Numbering of substitutions follows the chain as printed.

Experiments:
[1] = molecular target: T1, UPF1 RM-3F (RNA mutant, UPF1R RM-3F) (human, UniProt Q92900-2 1-1118, N524A;K547A;R843A); test: MST
T1 sequence: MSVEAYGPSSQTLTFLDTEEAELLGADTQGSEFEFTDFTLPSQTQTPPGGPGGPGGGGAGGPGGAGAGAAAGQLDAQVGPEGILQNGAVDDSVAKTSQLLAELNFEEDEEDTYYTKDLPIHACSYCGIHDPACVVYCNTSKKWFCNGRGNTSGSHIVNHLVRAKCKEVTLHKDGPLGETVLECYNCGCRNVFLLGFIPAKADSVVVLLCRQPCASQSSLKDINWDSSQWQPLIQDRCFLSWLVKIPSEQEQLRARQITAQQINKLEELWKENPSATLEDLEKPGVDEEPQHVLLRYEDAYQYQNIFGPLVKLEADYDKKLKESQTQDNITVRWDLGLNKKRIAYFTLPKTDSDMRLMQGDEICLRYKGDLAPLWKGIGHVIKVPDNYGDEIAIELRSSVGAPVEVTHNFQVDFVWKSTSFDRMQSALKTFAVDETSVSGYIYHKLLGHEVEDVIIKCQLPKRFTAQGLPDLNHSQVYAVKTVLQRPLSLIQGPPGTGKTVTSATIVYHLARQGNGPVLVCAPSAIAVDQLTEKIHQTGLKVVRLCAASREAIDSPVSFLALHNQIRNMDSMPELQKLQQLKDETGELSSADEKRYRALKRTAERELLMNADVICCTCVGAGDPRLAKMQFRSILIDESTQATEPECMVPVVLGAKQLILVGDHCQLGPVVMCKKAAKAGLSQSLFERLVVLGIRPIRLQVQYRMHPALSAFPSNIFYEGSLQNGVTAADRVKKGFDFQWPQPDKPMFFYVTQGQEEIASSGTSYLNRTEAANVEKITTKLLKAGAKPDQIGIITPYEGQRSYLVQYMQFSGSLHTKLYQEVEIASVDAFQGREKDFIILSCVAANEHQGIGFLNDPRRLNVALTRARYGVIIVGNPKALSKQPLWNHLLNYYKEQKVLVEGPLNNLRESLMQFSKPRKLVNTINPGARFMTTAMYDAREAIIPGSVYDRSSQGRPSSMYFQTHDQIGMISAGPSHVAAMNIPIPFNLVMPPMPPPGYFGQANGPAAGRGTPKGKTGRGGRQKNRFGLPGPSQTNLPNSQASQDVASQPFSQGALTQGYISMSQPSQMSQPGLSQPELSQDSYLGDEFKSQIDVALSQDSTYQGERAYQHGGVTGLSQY

[2] = molecular target: T2, UPF1-3F (wt, UPF1R-3F) (human, UniProt Q92900-2 1-1118); test: MST
T2 sequence: T1 sequence with A524N, A547K, A843R

Binder: UUUUUUUUUUUUUUUUUUUUUUUUUUUUUU (ssRNA) [U30 RNA]
- binding result [1]: no binding
- Kd [2]: 25.3 ± 4.43 nM
